Results published in the nanobody polyreactivity screen of Harvey et al. (2022).

Assay: yeast display, Sf9 membrane polyspecificity reagent, FACS + sequencing; frameworks hold sequencing errors
In short: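 Using colony PCR, genes from sorted yeast display clones were amplified, then sequenced on MiSeq at 2 × 250 and filtered by CDR length. The clones had been stained with 10% biotinylated, detergent-solubilized Sf9 membrane reagent for 1 hour at 4 °C and sorted by FACS into low and high (top ~1%) gates on anti-HA and streptavidin fluorescence. Polyreactivity labels come from the gate of origin.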

| Sequence | polyreactivity (PSR sort gate) |
| --- | --- |
| QVQLVESGGGLVQAGGSLRLSCAASGNIFYWNVMGWYRQAPGKERELVAVISNGGRTYYADSVKGRFTISRDNAKNTVYLQMNSLKPEDTAVYYCAAEYDRLSKRYDYWGQGTQVTVSS | high polyreactivity |
| QVQRVESGGGLVQAGGTLRLSCAASGRIFWYNAMGWSRQAPGKERELVAVISTRGGRTYYADSVKGRFTISRDNAKNTVYLQMNSLKPEDTAVYYCAAEFLNKAVGGVTSIYDSWGQGTQVTVSS | low polyreactivity |
| QVQLGESGGGLVQAGGSLRLSCAASGSIFWLYAMGWYRQAPGKERELVAAIDSGDSRKYADSVKGRFTISRDNAKNTVYLQMNSLTPEDTAVYYCNASRRYHVRAPYDYWGQGTLVTVSS | low polyreactivity |
| QVQLVESGGGLDQAGGSLRLSCAASGRTFTEYAMGWYRQAPGKERELVARISIGDSTYYADSVKGRFTISRDNAKNTDYLQMNSLKPEDTAVYYCNAEYSRSYRYDEGYWGQGTQVTVSS | low polyreactivity |
| QVHLVESGGGLVQAGGSLRLSCAASGRIFVPYVMGWNRQAPGTERELVASISDSDTSTYYADSVKGRFTISRDNAKNTVYVEMISLKPEDTAVYDCNVDYWGQGTHVTVSS | low polyreactivity |
| QVQLVESGGGLVQAGGSLRLSCAASGSIFGGYAMGWYRQAPGKERELVAAITWNGGSTYYADSVKGRFTISRDNAKNTVYLQMNSLKPEDTAVYYCAAELPGRDAGRYDYWGQGTQVTVSS | low polyreactivity |
| QVQLVESGGGLVQAGGSLRLSWAASGSIFKYYAMGWYRQAPGKDRELVADISRSGGRTYYADSVKGRFTISRDNAKNTVFLQMNSLKPEDTAVYYCAKRYSRGSQDDYWGQGTQVTVSS | high polyreactivity |
| QVQLVESGGGLVQAGGSLRLSCAASGNTFSQYAMGWYRQAPGKERELLAAISGSGGDTYYADSVKGRFTISRDNAKNTVYLQMNIMKPEDTAVYYCNADQESVFYEDYDYWGQGTQVTVSS | low polyreactivity |
| QVQLVESGGGLVQAGGSLRLSCAASGLIFYDNMGWYRQAPGKERELVAAISSSGGSRTYAYSVKGRFTISRDNAKNTVYFQMNSLKPEDTEVYYCALDKHYYGRYGVTYDYDYWGQGTQVTVSS | low polyreactivity |
| QVQLVESGGGLVQAGGSLRLSCAATGSNFGSNAMGWYRQAPGKEMELVAAITESGGDTYYADSVKGRFTISRDNAKNTVYLQMNSLKPEDSAVFYCAARYFGGIVDVSLFREYGSWGQGTQVTVSS | low polyreactivity |
| QVKLVESGGGLVQAGGSLRLSCAASGIIFEVYAMGWYRQAPGKERELVAAITLSSGGITYYADSVKGRFTISRDYAKNTVYLQMNSLKPEDTAVYYCAAQHDNFSGPFEYWGQGTQVTVSS | low polyreactivity |
| QVQLVESGGGLVQAGGSLRLSCAASGSIFYLYAMGWYRPAPGKERELVAAISSGGSTYYADSVKGRFTISRDNAKNTVYLQMNSLKPEDTAVYYCNADSYYYPYDYWGQGTQVTVSS | low polyreactivity |
| QVQLEESGGGLVQAGGSLRLSCAASGSTFTVNGMGWYRQAPGKERELVAAIDGGDGSTYYADSVKGRFTISRDNAKNTVYLQMNSLKPEDTAVYYCAADTPCFTQYGYWGQGTQVTVSS | low polyreactivity |
| QVQLVESGGGLVQAGGSLRLSCAASGLIFVYYTMGWYRQAPGKERELVAAIRSGGGTNYADSVKGRFTISRDNAKNTVYFQMNSLKPEDTAVYYCAASIRSYAYGGRKYNYWGQGSQVTVSS | high polyreactivity |
| QVQLVESGGGLVQAGGSLRLISAASGITFDYYAIGWSRQAPGKERELVAAITNDGRTYYADSVKGRFTISRDNAKNTVYLQMNSLKPEDTAVYYCARLTFREYDYWGQGTQVTVSS | low polyreactivity |
| QDQLVESGGGLVQAGGSLRLSCAPSGFIFDDNAMGWYRQAPGKERELVAAITSGGGSTYYADSVKGRFTISRDNAKNTFYLQMNSLKPEDTAVYYCNKVYGWYSFKWGPTASDYWGQGTQVTVSS | low polyreactivity |

| Sequence | polyreactivity (PSR sort gate) |
| --- | --- |
| QVQHVESGGGLVQAGGSLRLSCAASGIFVDNAMGWYRQARGKERELVAAITSSTDSTYYADSVKGRFPISRDNAKNTVYLQINSLNPEDSAVYYCAVARPGGFYFLVHYGYGYWGQGTQVTVSS | low polyreactivity |
| QDQLVESGGGLVQAGGSLRLSCAASGSTLYAYAMGWYRQAPGKERELVAAISFSTTSTYYADSVKGRFTISRDYEKNTVYLQMNSLKPEDTAVYYCAAEYWYYWEYEYWGLGTQVTVSS | high polyreactivity |
| QVQLVESGGGLVQAGGSLRLSCAASGSTFVTYTMGWYRQAPGKEREFVATISRSGCSTYYADSVKGRFTISRDNAKNTVYLQMNSLKPEDTAVYYCAAVRLVISKYWYIPYDYWGQGTQVTVSS | low polyreactivity |
| QVQLVESGGGLVQAGGSLRLSCAASGSIFRRNTMGWSRQATGKERELVAAITYRGGSTYYADSVKGRFTISRDNAKNTDYLQMNSLKPEESAVYYCARYLWYYRVSKSDSWGQGTQVTVSS | high polyreactivity |
| QVQLVESGGGLVQAGGSLRLSCAASGIIFDVYAMGWYRQAPGKERELVAAISKRGGRTYYADSVKGRFTISRDNAKNTVYLQMNSLKPEDTAVYYCAADGQYKHFDYWGQGTQVTVSS | high polyreactivity |
| QVQLVESGGGLVQAGGSLRLSCAASGSTFGYYAMGWYRQAPGKERELVAAITGSGGCTYYADSVKGRFTISRDNAKNTVYLQMNSLKPEDTAVYYCATPTKFVRDDYWGQGTQVTVSS | low polyreactivity |
| QVQLVESGGGLVQAGGSLRLSCAASGFTFAANTMGWYRQAPGKERELVADISGRGDRTSYADSVKGRFTISRDNAKNTVYLQMNSLKPEDTSVYYCAVDIYYYSNVHYYYWGQGTQVTVSS | low polyreactivity |
| QDQLVESGGGLVQAGGSLRLSCAASGSTFTKYAMGWYRQAPGKERELVAAIISYRVGSTYYADSVKGRFTISRDNAKINVYLVMKSLIPEDTAAFYCAAVWKPPGFSTMYYWGQGTEVTVSS | high polyreactivity |
| QVQLVESGGGLVQAGGSLRLSCAASGRTFGRNTMGWYRQAPGKERELVAAIDWSGGSTYYADSVKGRFTISRDNAKNTVYLQMNSLKPEDTAVYYCAAKTRWNFYYWGQGTQVTVSS | high polyreactivity |
| QVQLVESGGGLVQAGGSLRISCAPSGSIFSDYAMGWYRQAPGKERELVATISSSGSTNYADSVKGRFTISRDNAKNTVYLQMNSLKPEDTAVYYCAAARLFAMDYWGQGTQVTVSS | low polyreactivity |
| QVQLVESGGGLVQAGGSLRLSCAASGRTFGIYAMGWYRQAPGKERELVASISWSGGRTYYADSVKGRFTISRDNAKNTVYLQMNSLKPEDTAVYYCAAYGVYYPRSWQYFDWYGYWGQGTQVTVSS | high polyreactivity |
| QVQLVESGGGLVQVGGSLRLSCAASGITFSYYSMGWYRPAPGKERELVAAISQRGGSTYYADSVKGRFTISRDNAKNTVYLQMNSLKPEDTAVYYCAAAYRGANYGYGFDYWGQGTQVTVSS | high polyreactivity |
| QVQLVESGGGLVQAGGSLRLSCAASGRIFYFNAMGWYRQAPGKEREFVASINSIGDSTYYADSVKGRFTISRDYAKNTVYLQMNRLKPEDTAVYYCNADHGVINYRLDYWGQGTQVTVSS | low polyreactivity |
| QVQLVESGGGLVQAGGSLRLSCAASGFTFRGNAMGWYRQAPGKERELVAAISYIGGTTYYADSVKGRFTISRDNAKNTVYLQMNSLKPEDTAVYYCAADLYRSILKPDYDYWGQGTQVTVSS | high polyreactivity |
| QVQLVESGGGLVHAGGSLRLSCDASGLKFRAYDMGRYRQAPGKERELVAAITSSSGSTYYADSVKGRFTISRDNAKNTVYLQMNSLKPEDTSVYYCNAYSTFGWYDYWGQGTQVTVSS | low polyreactivity |
| QVQLVESGGGLVQAGGSLRLSCAASGFTIYSYAKAWYRQAPGKERELVAAITRGSSTNYADSVKGRFTISRDNAKNTVYLQMNSLKPEDTAVYYCNRGGWRQYDSWGQGTQVTVSS | high polyreactivity |
